In doi:10.1101/2024.04.26.591336:

Biological target: NOTCH2^ΔERA-TurboID (human)
Assay: proximity labelling

- Log2FC NICD2RA-vs-NICD2: -2.03 Log2FC
- percent of the NOTCH2 recovered, NICD2RA against NICD2: 13%
Substance: endogenous human NOTCH2 (from UniProt Q04721 26-2471) (natural protein)
